In the experiment the target is CDK4/cyclin D1 complex (UniProt P11802 1-303; P24385 1-295). As to the kind of experiment: cell-based or functional assay.

Experimental findings from patent publication US6521602 (GPC BIOTECH, dated 2003) are described below.

Chain of CDK4/cyclin D1 complex (P11802 whole entry, chain 1 of 2): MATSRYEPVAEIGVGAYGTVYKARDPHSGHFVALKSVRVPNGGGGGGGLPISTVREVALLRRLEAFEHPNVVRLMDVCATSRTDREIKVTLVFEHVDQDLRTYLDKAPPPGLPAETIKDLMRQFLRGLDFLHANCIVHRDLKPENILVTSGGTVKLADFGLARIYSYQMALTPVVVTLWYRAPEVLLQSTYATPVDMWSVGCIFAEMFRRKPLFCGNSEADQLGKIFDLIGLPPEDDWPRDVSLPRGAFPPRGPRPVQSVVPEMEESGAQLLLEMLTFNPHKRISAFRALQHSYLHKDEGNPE
Chain of CDK4/cyclin D1 complex (P24385 whole entry, chain 2 of 2): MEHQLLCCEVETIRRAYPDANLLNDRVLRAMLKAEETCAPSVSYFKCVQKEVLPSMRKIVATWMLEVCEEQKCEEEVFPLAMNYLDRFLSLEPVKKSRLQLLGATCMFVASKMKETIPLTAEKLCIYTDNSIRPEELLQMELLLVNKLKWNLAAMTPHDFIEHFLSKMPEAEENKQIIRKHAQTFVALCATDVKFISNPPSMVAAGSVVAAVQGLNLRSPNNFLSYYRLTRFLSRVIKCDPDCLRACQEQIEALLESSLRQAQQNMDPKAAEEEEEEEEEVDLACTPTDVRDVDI

Molecule human p27 (from UniProt P46527 1-198) had an IC50, in vitro kinase activity of 63 nM.

B1: human p16 (other)
chain: MEPAAGSSMEPSADWLATAAARGRVEEVRALLEAGALPNAPNSYGRRPIQVMMMGSARVAELLLLHGAEPNCADPATLTRPVHDAAREGFLDTLVVLHRAGARLDVRDAWGRLPVDLAEELGHRDVARYLRAAAGGTRGSNHARIDAAEGPSDIPD
Turning to B1, the “IC50, in vitro kinase activity” value was determined as 250 nM.
